In patent US20200223925A1 (Hoffmann-La Roche, published 2020):

Legend:
[1] = target: T1, human Fibroblast Activation Protein (FAP) (human, UniProt Q12884 1-760); experiment: flow cytometry, 3T3-huFAP cells, PE anti-human IgG secondary, MFI
T1 construct: on 3T3-huFAP or MV3 cells in the functional assays; also called huFAP; 3T3-huFAP cells (clone 19)
Procedure: (§1) Binding was assessed by flow cytometry with a FACS Fortessa (BD, Software FACS Diva). Binding curves were obtained using GraphPadPrism6.

human CD28 = target: T2, human CD28 (human, UniProt P10747 19-220); experiment: flow cytometry, CHO cells stably overexpressing human CD28, monovalent one-armed IgG from supernatant, PE anti-human IgG secondary, MFI
T2 construct: on primary human T cells in the functional assays; also called huCD28; CHO cells expressing human CD28
Procedure: as §1

| binding result [1] | binding result (human CD28) | Binder |
| --- | --- | --- |
| binds |  | Molecule E: FAP(4B9)-CD28(SA) 1+2 format (bispecific antibody, human IgG1, kappa, L234A L235A, bivalent anti-CD28(SA), monovalent anti-FAP (VH on knob chain, VL on hole chain), huIgG1 PG-LALA; also called P1AD9011; FAP-CD28(SA) 1+2) light: not shown heavy 1: not shown heavy 2: QVQLVQSGAEVKKPGASVKVSCKASGYTFTSYYIHWVRQAPGQGLEWIGCIYPGNVNTNYNEKFKDRATLTVDTSISTAYMELSRLRSDDTAVYFCTRSHYGLDWNFDVWGQGTTVTVSSASTKGPSVFPLAPSSKSTSGGTAALGCLVKDYFPEPVTVSWNSGALTSGVHTFPAVLQSSGLYSLSSVVTVPSSSLGTQTYICNVNHKPSNTKVDKKVEPKSCDKTHTCPPCPAPEAAGGPSVFLFPPKPKDTLMISRTPEVTCVVVDVSHEDPEVKFNWYVDGVEVHNAKTKPREEQYNSTYRVVSVLTVLHQDWLNGKEYKCKVSNKALGAPIEKTISKAKGQPREPQVCTLPPSRDELTKNQVSLSCAVKGFYPSDIAVEWESNGQPENNYKTTPPVLDSDGSFFLVSKLTVDKSRWQQGNVFSCSVMHEALHNHYTQKSLSLSPGGGGGSGGGGSGGGGSGGGGSEIVLTQSPGTLSLSPGERATLSCRASQSVTSSYLAWYQQKPGQAPRLLINVGSRRATGIPDRFSGSGSGTDFTLTISRLEPEDFAVYYCQQGIMLPPTFGQGTKVEIK |
|  | binds | CD28(SA)_variant_28 (antibody, human IgG1, kappa, L234A L235A, monovalent one-armed IgG-like construct; from supernatant; also called P1AE3084) heavy: not shown light: not shown DKTHTCPPCPAPEAAGGPSVFLFPPKPKDTLMISRTPEVTCVVVDVSHEDPEVKFNWYVDGVEVHNAKTKPREEQYNSTYRVVSVLTVLHQDWLNGKEYKCKVSNKALGAPIEKTISKAKGQPREPQVCTLPPSRDELTKNQVSLSCAVKGFYPSDIAVEWESNGQPENNYKTTPPVLDSDGSFFLVSKLTVDKSRWQQGNVFSCSVMHEALHNRFTQKSLSLSP |
